B1: RAD51AP1 (RAD51 associated protein 1), full-length wild type [not stated] / RAD51 recombinase [not stated] (parent complex)
chain 1: MVRPVRHKKPVNYSQFDHSDSDDDFVSATVPLNKKSRTAPKELKQDKPKPNLNNLRKEEIPVQEKTPKKRLPEGTFSIPASAVPCTKMALDDKLYQRDLEVALALSVKELPTVTTNVQNSQDKSIEKHGSSKIETMNKSPHISNCSVASDYLDLDKITVEDDVGGVQGKRKAASKAAAQQRKILLEGSDGDSANDTEPDFAPGEDSEDDSDFCESEDNDEDFSMRKSKVKEIKKKEVKVKSPVEKKEKKSKSKCNALVTSVDSAPAAVKSESQSLPKKVSLSSDTTRKPLEIRSPSAESKKPKWVPPAASGGSRSSSSPLVVVSVKSPNQSLRLGLSRLARVKPLHPNATST
chain 2: MAMQMQLEANADTSVEEESFGPQPISRLEQCGINANDVKKLEEAGFHTVEAVAYAPKKELINIKGISEAKADKILAEAAKLVPMGFTTATEFHQRRSEIIQITTGSKELDKLLQGGIETGSITEMFGEFRTGKTQICHTLAVTCQLPIDRGGGEGKAMYIDTEGTFRPERLLAVAERYGLSGSDVLDNVAYARAFNTDHQTQLLYQASAMMVESRYALLIVDSATALYRTDYSGRGELSARQMHLARFLRMLLRLADEFGVAVVITNQVVAQVDGAAMFAADPKKPIGGNIIAHASTTRLYLRKGRGETRICKIYDSPCLPEAEAMFAINADGVGDAKD

Variants of: B1
Test: BLI; RAD51 about 2.5 µM (highest point, read from the x axis); read off a plot

Row | Variant | response [nm]
1 | chain 1 MVRPVRHKKPVNYSQFDHSDSDDDFVSATVPLNKKSRTAPKELKQDKPKPNLNNLRKEEIPVQEKTPKKRLPEGTFSIPASAVPCTKMALDDKLYQRDLEVALALSVKELPTVTTNVQNSQDKSIEKHGSSKIETMNKSPHISNCSVASDYLDLDKITVEDDVGGVQGKRKAASKAAAQQRKILLEGSDGDSANDTEPDFAPGEDSEDDSDFCESEDNDEDFSMRKSKVKEIKKKEVKVKSPVEKKEKKSKSKCNALVTSVDSAPAAVKSESQSLPKKVSLSSDTTRKPLEIRSPSAESKKPKWVPPAASGGSRSSSSPLVVVSVKSPNQSLAAGASRLARVKPLHPNATST [chain 1 R333A, chain 1 L334A, chain 1 L336A] | ~0.005

From article PMC12704761, “RAD51AP1 is a versatile RAD51 modulator” (Proceedings of the National Academy of Sciences of the …, 2025)
